Publication PMC6555819, “Comprehensive study of nuclear receptor DNA binding provides a revised framework for understanding receptor specificity”

B1: NRC3_wobSeed3_DR0_G21C_o1 (dsDNA)
DNA 1: GCGCTCGGAGGACAAGGTCACAGCTTTGTCCGTAGAGCGATTGACAGCGTAGAATGAAGG
DNA 2: CCTTCATTCTACGCTGTCAATCGCTCTACGGACAAAGCTGTGACCTTGTCCTCCGAGCGC
B2: NRC3_wobSeed122_DR5_G10T_o1 (dsDNA)
DNA 1: GCGCTAGTTTGTCAGTAAAAGGTCACACACCGGTCGGCGATTGACAGCGTAGAATGAAGG
DNA 2: CCTTCATTCTACGCTGTCAATCGCCGACCGGTGTGTGACCTTTTACTGACAAACTAGCGC
B3: NRC3_wobSeed122_DR5_C4A_o1 (dsDNA)
DNA 1: GCGATAGTTGGTCAGTAAAAGGTCACACACCGGTCGGCGATTGACAGCGTAGAATGAAGG
DNA 2: CCTTCATTCTACGCTGTCAATCGCCGACCGGTGTGTGACCTTTTACTGACCAACTATCGC
B4: NRC3_wobSeed82_DR3_A28G_o1 (dsDNA)
DNA 1: GCATCGAAAGGTCGACGAGGTGAGTATGCACCGTTTGCGATTGACAGCGTAGAATGAAGG
DNA 2: CCTTCATTCTACGCTGTCAATCGCAAACGGTGCATACTCACCTCGTCGACCTTTCGATGC
B5: NRC3_wobSeed93_DR3_T26A_o1 (dsDNA)
DNA 1: GCAGTCAAAGTTCATCTAGGTAACGAAAGATATGCTGCGATTGACAGCGTAGAATGAAGG
DNA 2: CCTTCATTCTACGCTGTCAATCGCAGCATATCTTTCGTTACCTAGATGAACTTTGACTGC
B6: NRC3_wobSeed93_DR3_A23T_o1 (dsDNA)
DNA 1: GCAGTCAAAGTTCATCTAGGTATCGTAAGATATGCTGCGATTGACAGCGTAGAATGAAGG
DNA 2: CCTTCATTCTACGCTGTCAATCGCAGCATATCTTACGATACCTAGATGAACTTTGACTGC
B7: NRC3_wobSeed5_DR0_A20G_o1 (dsDNA)
DNA 1: GCCCTTACGGGTCAAGGTTGTAGCACGGGTGGTACGGCGATTGACAGCGTAGAATGAAGG
DNA 2: CCTTCATTCTACGCTGTCAATCGCCGTACCACCCGTGCTACAACCTTGACCCGTAAGGGC
B8: NRC3_wobSeed100_DR4_C12G_o1 (dsDNA)
DNA 1: GCCCTACTGGGGCACGAAAGGTCATTGATTCAGTGAGCGATTGACAGCGTAGAATGAAGG
DNA 2: CCTTCATTCTACGCTGTCAATCGCTCACTGAATCAATGACCTTTCGTGCCCCAGTAGGGC
B9: NRC3_wobSeed100_DR4_C13G_o1 (dsDNA)
DNA 1: GCCCTACTGGGCGACGAAAGGTCATTGATTCAGTGAGCGATTGACAGCGTAGAATGAAGG
DNA 2: CCTTCATTCTACGCTGTCAATCGCTCACTGAATCAATGACCTTTCGTCGCCCAGTAGGGC
B10: NRC3_wobSeed100_DR4_C15T_o1 (dsDNA)
DNA 1: GCCCTACTGGGCCATGAAAGGTCATTGATTCAGTGAGCGATTGACAGCGTAGAATGAAGG
DNA 2: CCTTCATTCTACGCTGTCAATCGCTCACTGAATCAATGACCTTTCATGGCCCAGTAGGGC
B11: NRC3_wobSeed34_DR1_A15C_o1 (dsDNA)
DNA 1: GCATCGAAAGGTCGCAGGTGAGTATACCCACCCGAAGCGATTGACAGCGTAGAATGAAGG
DNA 2: CCTTCATTCTACGCTGTCAATCGCTTCGGGTGGGTATACTCACCTGCGACCTTTCGATGC
B12: NRC3_wobSeed34_DR1_G6T_o1 (dsDNA)
DNA 1: GCATCTAAAGGTCGAAGGTGAGTATACCCACCCGAAGCGATTGACAGCGTAGAATGAAGG
DNA 2: CCTTCATTCTACGCTGTCAATCGCTTCGGGTGGGTATACTCACCTTCGACCTTTAGATGC
B13: NRC3_wobSeed44_DR1_T13C_o1 (dsDNA)
DNA 1: GCTGAATGAGGTCAAAGATCAGGGAACGTGGCGTCGGCGATTGACAGCGTAGAATGAAGG
DNA 2: CCTTCATTCTACGCTGTCAATCGCCGACGCCACGTTCCCTGATCTTTGACCTCATTCAGC
B14: NRC3_wobSeed109_DR4_G25T_o1 (dsDNA)
DNA 1: GCCGTCCAAGGTCATAGGAGGTCATTGAAGACAGATGCGATTGACAGCGTAGAATGAAGG
DNA 2: CCTTCATTCTACGCTGTCAATCGCATCTGTCTTCAATGACCTCCTATGACCTTGGACGGC
B15: NRC3_wobSeed133_DR5_T23C_o1 (dsDNA)
DNA 1: GCCGTCCAAGGTCAATGCTAGGCCAGTGAAAGCATTGCGATTGACAGCGTAGAATGAAGG
DNA 2: CCTTCATTCTACGCTGTCAATCGCAATGCTTTCACTGGCCTAGCATTGACCTTGGACGGC
B16: NRC3_wobSeed21_DR0_G17C_o1 (dsDNA)
DNA 1: GCCGTCAAAGTTCAAGCTAACGTAACAGAAAGCAGCGCGATTGACAGCGTAGAATGAAGG
DNA 2: CCTTCATTCTACGCTGTCAATCGCGCTGCTTTCTGTTACGTTAGCTTGAACTTTGACGGC
B17: NRC3_wobSeed73_DR3_C22T_o1 (dsDNA)
DNA 1: GCCAAACTAGGTCACAGAGGTTAAAGTCCGTGCGTAGCGATTGACAGCGTAGAATGAAGG
DNA 2: CCTTCATTCTACGCTGTCAATCGCTACGCACGGACTTTAACCTCTGTGACCTAGTTTGGC
B18: NRC3_wobSeed18_DR0_G16T_o1 (dsDNA)
DNA 1: GCGATACAGGGTCAATGCCAGAGTACGCGTATTGATGCGATTGACAGCGTAGAATGAAGG
DNA 2: CCTTCATTCTACGCTGTCAATCGCATCAATACGCGTACTCTGGCATTGACCCTGTATCGC
B19: NRC3_wobSeed98_DR4_o1 (dsDNA)
DNA 1: GCACTAGTTGGTCAGCTGAGGTCACACACAATTCGGGCGATTGACAGCGTAGAATGAAGG
DNA 2: CCTTCATTCTACGCTGTCAATCGCCCGAATTGTGTGTGACCTCAGCTGACCAACTAGTGC
B20: NRC3_wobSeed2_DR0_C4T_o1 (dsDNA)
DNA 1: GCCTTAGTTGGTCAAGGTCACACACGCTATAGGTACGCGATTGACAGCGTAGAATGAAGG
DNA 2: CCTTCATTCTACGCTGTCAATCGCGTACCTATAGCGTGTGTGACCTTGACCAACTAAGGC
B21: NRC3_wobSeed88_DR3_C7A_o1 (dsDNA)
DNA 1: GCTAGCATAGGTCATGCGGGCCAGTATAGTGTCGGCGCGATTGACAGCGTAGAATGAAGG
DNA 2: CCTTCATTCTACGCTGTCAATCGCGCCGACACTATACTGGCCCGCATGACCTATGCTAGC
B22: NRC3_wobSeed97_DR4_T22G_o1 (dsDNA)
DNA 1: GCCAAACTAGGTCACGAAAGGGCAAAGTCGAATGACGCGATTGACAGCGTAGAATGAAGG
DNA 2: CCTTCATTCTACGCTGTCAATCGCGTCATTCGACTTTGCCCTTTCGTGACCTAGTTTGGC
B23: NRC3_wobSeed30_DR1_C4G_o1 (dsDNA)
DNA 1: GCAGTAGCAGGCCAAGGGTCACTCAAGATTAGTCCGGCGATTGACAGCGTAGAATGAAGG
DNA 2: CCTTCATTCTACGCTGTCAATCGCCGGACTAATCTTGAGTGACCCTTGGCCTGCTACTGC
B24: NRC3_wobSeed74_DR3_C15T_o1 (dsDNA)
DNA 1: GCTCTAGTTGGTCATGGAGGTCACACACGACGGGTAGCGATTGACAGCGTAGAATGAAGG
DNA 2: CCTTCATTCTACGCTGTCAATCGCTACCCGTCGTGTGTGACCTCCATGACCAACTAGAGC

Biological target: RXRa (Homo sapiens, UniProt P19793)
Sequence (P19793 whole entry): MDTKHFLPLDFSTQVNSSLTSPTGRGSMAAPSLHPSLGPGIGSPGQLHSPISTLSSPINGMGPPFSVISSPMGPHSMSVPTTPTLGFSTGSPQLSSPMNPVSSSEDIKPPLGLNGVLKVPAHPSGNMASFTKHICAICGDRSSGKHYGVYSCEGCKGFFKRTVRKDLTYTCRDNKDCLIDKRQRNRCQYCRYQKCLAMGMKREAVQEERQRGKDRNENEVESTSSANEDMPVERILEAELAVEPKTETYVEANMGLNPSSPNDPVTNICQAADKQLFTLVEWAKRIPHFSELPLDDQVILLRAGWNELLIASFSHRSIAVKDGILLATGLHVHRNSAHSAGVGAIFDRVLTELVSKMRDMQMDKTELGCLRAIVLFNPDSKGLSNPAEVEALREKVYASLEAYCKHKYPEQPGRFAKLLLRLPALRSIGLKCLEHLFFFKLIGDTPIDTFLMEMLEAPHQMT
Experiment: no ligand; PBM; 180 nM; PBS pH 7.4, 2% milk, 0.02% Triton X-100, 1 mM DTT, BSA, 0.4 mg/ml salmon testes DNA
Conditions: tags: His cleaved; chain copies: 2; label: surface-attached array probe

| Binder | binding signal |
| --- | --- |
| B1 | 4.86 PBM z-score against 500 random probes |
| B2 | 5.24 PBM z-score against 500 random probes |
| B3 | 4.99 PBM z-score against 500 random probes |
| B4 | 4.34 PBM z-score against 500 random probes |
| B5 | 5.16 PBM z-score against 500 random probes |
| B6 | 4.47 PBM z-score against 500 random probes |
| B7 | 4.67 PBM z-score against 500 random probes |
| B8 | 5.1 PBM z-score against 500 random probes |
| B9 | 4.57 PBM z-score against 500 random probes |
| B10 | 4.52 PBM z-score against 500 random probes |
| B11 | 5.33 PBM z-score against 500 random probes |
| B12 | 4.9 PBM z-score against 500 random probes |
| B13 | 7.98 PBM z-score against 500 random probes |
| B14 | 7.89 PBM z-score against 500 random probes |
| B15 | 4.95 PBM z-score against 500 random probes |
| B16 | 4.62 PBM z-score against 500 random probes |
| B17 | 5.19 PBM z-score against 500 random probes |
| B18 | 4.72 PBM z-score against 500 random probes |
| B19 | 4.42 PBM z-score against 500 random probes |
| B20 | 5.06 PBM z-score against 500 random probes |
| B21 | 4.81 PBM z-score against 500 random probes |
| B22 | 4.76 PBM z-score against 500 random probes |
| B23 | 4.38 PBM z-score against 500 random probes |
| B24 | 5.28 PBM z-score against 500 random probes |
